Assay results as given in the supplement of paper PMC10567573.

B1: DYRK1B (parent)
chain: RFQDLVLRMLEYEPAARISPLGAL
B2: DCTD (parent)
chain: VKGCSMYVALFPCNECAKLIIQAG
B3: TRIM35 (parent)
chain: PTCPVCKDRASPADLRTNHTLNNL

Variants of: B1
Assay: protein stability index of a GFP-peptide fusion (GPS, HEK-293T) (PSI 1-6); higher = more stable
Details: c terminus: a fixed tail appended
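Note: lentivirally expressed fusions sorted by FACS into six bins by GFP to DsRed ratio, PSI derived from sequencing read proportions per bin multiplied by bin number.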

Protein stability index, by site and new letter:
A23: R 2.45, K 1.29, Y 2.71, M 2.25, D 1.42, Q 2.06, F 1.59, G 2.75, T 2.04, H 2.52
L24: G 1.35, I 4.35, E 2.36, S 2.08, K 1.31, N 1.82, H 2.36, F 1.95, D 2.29, T 4.33, C 2.82, Q 2.27, P 1.6, A 2.93
G22: L 2.02, I 2.49, F 2.04, W 2.76, C 1.86, D 2.68, T 3.41, A 2.95, E 3.2, H 1.52, M 2.2, Y 1.71, K 2.67, V 3.1
L21: F 1.36, E 1.56, K 1.19, V 2.56, M 1.68, S 2.27, T 2, Y 2.98, P 1.93, R 1.77, H 3.73, I 2.48

Variants of: B2
Assay: as above
Details: c terminus: a fixed tail appended

Protein stability index of substitutions, site by site:
V8: L 1.94, N 1.49, P 2.22, E 1.75, D 1.62, A 2.64, G 1.28, F 3.62, Q 4.51, K 3.21, M 2.92, H 2.37, S 2.3, W 1.9, C 1.9, T 2.19, Y 3.08
I21: V 2.14, E 1.31, L 1.76, W 2.72, T 1.83, D 3.77, S 2.24
M6: E 2.2, T 2.33, Q 3.17, I 3.81, N 2.2, D 1.7, C 2.7, R 1.58, A 3.35, L 4.51, H 2.21, S 2.46, Y 2.7
F11: S 2.83, D 4.47, C 3.11, Y 2.95
C16: N 5.28, K 5.31, M 3.57
A9: G 3.16, W 1.94, L 3.68, F 3.38, C 2.79
Q22: P 2.51, E 3.39
V1: G 3.72, S 3.18, T 3.12, A 1.7, E 2.15, C 2.61, I 2.68, W 2.09, H 1.54, M 3.04, P 2.74, K 3.98, F 3.94
K2: V 4.19, F 2.27, T 3.52, D 2.7, S 3.47, H 2.42, R 2.54, P 2.71, W 3.93
G3: A 2.9, N 3.06, V 2.23, Q 3.85, M 4.03, C 2.07, D 3.8, I 3.94, K 2.53, Y 4.09, F 2.27, T 3.43, W 4.42, P 4.11
S5: E 3.58, K 2.44, N 2.91, W 3.75, P 3.12, C 1.73, H 3.63, M 1.55, Y 1.87, F 2.58, D 2.2
L10: A 2.48, S 2.2, Q 3.35, P 3.06
A17: H 3.41, Q 3.48, T 3.02, N 3.32, I 3.08
P12: Q 1.81, R 2.9, N 3.57, V 4.55, G 2.57, T 2.86
G24: N 2.86, A 2, E 2.98, T 3.17, H 3.84, K 1.76, V 2.98
C13: P 1.7, E 2.59
I20: H 2.4
C4: S 3.15, I 2.89, L 2.78, P 1.75, T 2.88, A 2.19, R 3.18, F 2.92, V 2.86, E 1.71
L19: C 3.04, W 2.99, T 2.23, D 2.4, E 5.26, F 3.88, M 2.14
K18: S 4.23, W 1, C 4.05, I 1.99, L 1.05, V 4.91, H 2.55
E15: N 2.17, W 4.68, G 3.97, I 3.06, H 3.15, Q 2.62, V 1.31
Y7: D 1.68, L 4.45, H 1.78, W 2.92, M 4.09, T 1.91, C 2.84, I 3.49, A 2.65, F 2.5
N14: M 2.9, F 2.99, P 2.04, K 1.92
A23: E 2.7, P 2.84, L 5.75, G 2.31

Variants of: B3
Assay: as above
Details: c terminus: a fixed tail appended

Protein stability index, by site and new letter:
C3: A 4.44, Q 4.24, E 4.06, K 4, M 4.08, D 4.75, R 4.46, H 3.84, N 4.05, L 4.28, Y 3.24, V 4.1, I 4.38, W 3.89, P 4.02, T 4.36, F 3.79, G 4.3, S 4.55
V5: C 3.15, S 3.43, K 3.59, Q 3.38, A 3.33, L 2.47, T 3.19, H 2.36, E 3.65, F 2.04, Y 1.91, I 2.69, W 2.78, P 4.71, G 3.7, R 2.87, D 4.16, M 2.76, N 3.3
P4: S 2.98, K 3.21, D 3.71, Q 3.28, E 3.42, T 3.3, I 2.72, M 3.16, W 2.58, G 2.71, L 3.32, N 3.26, C 2.79, A 2.72, Y 3.01, R 3.38, V 3.19, F 2.73, H 3.03
P1: W 1.6, S 2.8, Q 2.7, R 2.56, N 2.41, Y 2.47, T 2.99, M 2.62, H 2.95, A 2.64, E 2.75, L 2.62, K 2.82, V 2.85, G 2.17, F 2.11, I 2.63, D 3.2, C 3.87
T2: F 2.33, K 3.52, C 2.9, V 3.82, H 2.82, A 3.67, L 2.79, P 3.58, D 3.68, R 3.12, I 2.71, S 3.24, M 3.14, N 3.26, Y 2.3, E 3.47, W 2.2, G 2.95, Q 3.27
C6: M 4.22, E 4.64, D 4.74, H 4.11, I 3.59, G 4.12, K 4.31, A 4.55, N 4.2, S 4.39, P 4.09, V 4.22, L 3.86, R 4.05, T 4.44, Q 4.28, F 3.84
